The values below come from publication PMC7924223, “Functionalization of the BCL6 BTB domain into a noncovalent crystallization chaperone” (IUCrJ, 2021).

This assay addresses BCL6 BTB domain (BCL6^BTB), residues 6-129 with C8Q, C67R and C84N (human, UniProt P41182 6-129, C8Q | C67R | C84N). Description: crystal structure; co-crystallization at 298 K; BCL6 proteins at 300 µM (monomer) in 20 mM HEPES pH 7.5, 300 mM NaCl, 3 mM β-mercaptoethanol; NCoR1^BBD1 peptide in 4:1, NCoR1^BBD2 peptide in 8:1 molar excess; the complex with nebulin^SH3-NCoR1^BBD1 purified by size-exclusion chromatography before crystallization. Conditions: both partners purified. (In general: In gel filtration, larger molecules generally elute earlier.)

B1: NCoR1^BBD1 peptide (high-affinity BCL6-binding domain 1 of the corepressor NCoR1) (peptide)
peptide: GITTIKEMGRSIHEIPR
notes: source: synthetic peptide (GL Biochem Shanghai Ltd)
On to B1, for which the binding result is “binds”.
